In paper PMC314469, “Protein Interaction Networks by Proteome Peptide Scanning” (PLoS Biology, 2004):

T1: amphyphisin SH3 (AMPH_HUMAN), P49418
T1 chain: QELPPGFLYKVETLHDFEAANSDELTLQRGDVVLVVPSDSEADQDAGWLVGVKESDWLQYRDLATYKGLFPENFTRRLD

B1: O75336 479-493 (peptide)
chain: FGTLPPRPPGQDTS
B2: Q9HAP2 6-19 (peptide)
chain: FMSSPRRPRSRGRQ
B3: P28288 243-256 (peptide)
chain: FLTRLRRPIGKMTI
B4: Q07283 41-54 (peptide)
chain: FGAVLRRPHDPKTV
B5: Q9NWR1 213-226 (peptide)
chain: FEEGIKRPYFHVKP
B6: Q99853 71-84 (peptide)
chain: FIKIPRRPDQPGKG
B7: O43558 420-433 (peptide)
chain: FNFDIRRPSLEHRQ
B8: Q9BPU7 391-404 (peptide)
chain: FEGSLRRPLSWKSL
B9: P17096 49-62 (peptide)
chain: EVPTPKRPRGRPKG
B10: Q9HCH8 560-573 (peptide)
chain: AHMAISRPLKASQM
B11: P08588 264-278 (peptide)
chain: FLGGPARPPSPSPS
B12: O94885 388-402 (peptide)
chain: FDGSPEKPPEDDSD
B13: P50219 263-276 (peptide)
chain: FNKYLSRPKRFEVA
B14: BAC04960 97-111 (peptide)
chain: EYHRPAKPPPPPTG
B15: P52945 167-180 (peptide)
chain: FNKYISRPRRVELA
B16: Q9UFB1 214-227 (peptide)
chain: AHLPPPRPQRPAET
B17: P49790 786-799 (peptide)
chain: FGDKFKRPIGSWES
B18: Q9UPW7 1021-1034 (peptide)
chain: FAPEFRRPKNIHLR
B19: O43508 84-97 (peptide)
chain: FLNRLVRPRRSAPK
B20: Q96IC8 98-112 (peptide)
chain: FLLLPPRPPPARPE
B21: Q8WUZ5 5-18 (peptide)
chain: FGRRPRRPVDGRVG
B22: Q9UQC2 347-361 (peptide)
chain: AIAPPPRPPKPSQA
B23: Q9H7L2 189-203 (peptide)
chain: FNDSPYKPPVTRSN
B24: O43559 400-413 (peptide)
chain: FNFDFRRPGPEPPR
B25: P23470 266-279 (peptide)
chain: EWIVFRRPVPISYH
B26: P36959 12-25 (peptide)
chain: FKDVLLRPKRSSLK
B27: Q9H3T9 40-53 (peptide)
chain: FSDFLKRPIALLKM
B28: Q9NVW8 331-344 (peptide)
chain: FERPFRRPNANFTS
B29: Q99526 361-374 (peptide)
chain: FGLVPERPLKQELG
B30: P17480 292-306 (peptide)
chain: FDGRPTKPPPNSYS
B31: BAC04305 7-21 (peptide)
chain: EYALPQRPPQGPED
B32: Q12908 58-71 (peptide)
chain: FLGHIKRPWGISVG
B33: Q9NUK8 110-123 (peptide)
chain: FLSIPRRPNWNQNT
B34: O75449 234-247 (peptide)
chain: FFKGIRRPWKGVLM
B35: P78508 165-178 (peptide)
chain: FLAKIARPKKRAET
B36: Q99743 208-221 (peptide)
chain: FDNTLSRPSRVPLG
B37: O14802 125-138 (peptide)
chain: FLDYLKRPGLTYLQ
B38: Q13258 335-348 (peptide)
chain: FHKIFIRPLRYRSR
B39: Q96QH2 422-436 (peptide)
chain: FGDLPRKPPLPSSA
B40: O43364 164-177 (peptide)
chain: FNKYLSRPRRVEIA
B41: Q9BXU7 105-118 (peptide)
chain: EVQPPVRPGKGGSV
B42: O94987 53-66 (peptide)
chain: EWASLLRPLRGREP

Target: T1, amphyphisin SH3 (AMPH_HUMAN), P49418
Assay: SPOT array

| normalised SPOT signal, Boehringer light units (BLU); mean over the file's lines of this peptide | Binder |
| --- | --- |
| 52.3 | B1 |
| 1130 | B2 |
| 14.2 | B3 |
| 18.4 | B4 |
| 48.9 | B5 |
| 117 | B6 |
| 115 | B7 |
| 43.8 | B8 |
| 36 | B9 |
| 137 | B10 |
| 80.6 | B11 |
| 36.5 | B12 |
| 193 | B13 |
| 43.8 | B14 |
| 242 | B15 |
| 248 | B16 |
| 34 | B17 |
| 41.6 | B18 |
| 724 | B19 |
| 42.3 | B20 |
| 35.7 | B21 |

| normalised SPOT signal, Boehringer light units (BLU); mean over the file's lines of this peptide | Binder |
| --- | --- |
| 3020 | B22 |
| 64.1 | B23 |
| 26.2 | B24 |
| 95.2 | B25 |
| 3460 | B26 |
| 22 | B27 |
| 4010 | B28 |
| 647 | B29 |
| 66.2 | B30 |
| 38.5 | B31 |
| 34.2 | B32 |
| 164 | B33 |
| 62.9 | B34 |
| 168 | B35 |
| 1220 | B36 |
| 14.8 | B37 |
| 15900 | B38 |
| 48.3 | B39 |
| 255 | B40 |
| 143 | B41 |
| 308 | B42 |

Target: endophilin SH3 (SH3G2_HUMAN), Q99962
Assay: SPOT array

| normalised SPOT signal, Boehringer light units (BLU); mean over the file's lines of this peptide | Binder |
| --- | --- |
| 77.3 | B1 |
| 1160 | B2 |
| 382 | B3 |
| 51.1 | B4 |
| 147 | B5 |
| 479 | B6 |
| 3350 | B7 |
| 67.7 | B8 |
| 41.8 | B9 |
| 417 | B10 |
| 8610 | B11 |
| 36.7 | B12 |
| 111 | B13 |
| 86 | B14 |
| 385 | B15 |
| 238 | B16 |
| 45.5 | B17 |
| 204 | B18 |
| 2010 | B19 |
| 2020 | B20 |
| 83.3 | B21 |

| normalised SPOT signal, Boehringer light units (BLU); mean over the file's lines of this peptide | Binder |
| --- | --- |
| 5760 | B22 |
| 93 | B23 |
| 100 | B24 |
| 557 | B25 |
| 557 | B26 |
| 399 | B27 |
| 343 | B28 |
| 284 | B29 |
| 351 | B30 |
| 36.6 | B31 |
| 116 | B32 |
| 1230 | B33 |
| 159 | B34 |
| 190 | B35 |
| 170 | B36 |
| 7.9 | B37 |
| 2980 | B38 |
| 994 | B39 |
| 156 | B40 |
| 136 | B41 |
| 170 | B42 |
